Test results published in article PMC8207774, “NtbHLH1, a JAF13-like bHLH, interacts with NtMYB6 to enhance proanthocyanidin accumulation in Chinese Narcissus” (BMC Plant Biology, 2021).

Biological target: T1, NtbHLH1 (Chinese narcissus (Narcissus tazetta L. …, UniProt A0A517FM44 1-631))
T1 sequence (looked up): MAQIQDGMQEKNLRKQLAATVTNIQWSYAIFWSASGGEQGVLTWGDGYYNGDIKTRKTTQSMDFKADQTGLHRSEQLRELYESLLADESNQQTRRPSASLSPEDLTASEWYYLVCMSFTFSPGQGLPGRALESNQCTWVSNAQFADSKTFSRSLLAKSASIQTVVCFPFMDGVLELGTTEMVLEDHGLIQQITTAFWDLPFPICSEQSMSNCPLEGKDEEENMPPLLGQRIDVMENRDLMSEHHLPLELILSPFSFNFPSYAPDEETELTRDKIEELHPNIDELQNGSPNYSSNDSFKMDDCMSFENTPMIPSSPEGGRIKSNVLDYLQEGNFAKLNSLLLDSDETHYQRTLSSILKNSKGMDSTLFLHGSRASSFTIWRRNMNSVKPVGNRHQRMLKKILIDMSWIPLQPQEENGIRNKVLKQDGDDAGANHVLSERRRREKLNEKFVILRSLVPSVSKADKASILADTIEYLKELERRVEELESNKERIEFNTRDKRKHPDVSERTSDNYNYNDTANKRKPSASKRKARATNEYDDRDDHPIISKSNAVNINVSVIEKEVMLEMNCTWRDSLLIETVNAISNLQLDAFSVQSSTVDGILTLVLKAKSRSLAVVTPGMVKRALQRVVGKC
Test: cell-based or functional assay

NtDFR promoter activity, dual luciferase assay in N. benthamiana leaves, co-infiltration of NtbHLH1 and NtMYB6 compared to NtMYB6 alone: ~8 fold
NtDFR promoter activity, dual luciferase assay in N. benthamiana leaves, co-infiltration of NtbHLH1 and NtMYB6 compared to the control: ~14 fold
B1: NtMYB6 (natural protein, UniProt A0A1U9X216 1-249, looked up)
chain: MGRAPCCSKVGLHRGPWTAREDALLTNYIQCHGEGNWRSLPKNAGLLRCGKSCRLRWMNYLRPDIKRGNIGPEEEDLIIRLHSLLGNRWSIIAGRLPGRTDNEIKNYWNSHLSKKLKKQGIQVRGNLSSKQSKSSKMNNNDNNNNLEKRKNIKETPKIKIHAPKPTRFTRTISQSSSSCQANNVENVTSEDERCDIPWTNAESQDDIFAPGSWNYELFDIDRVYQEYSQLLNGEDDQFPMASFTESVFA
